From the supplement of paper PMC9170038 come the findings set out here.

In this series the test system is MS2 coat protein. In words: apparent KD of MS2 coat protein; designed switch direction (-1 OFF switch, 1 ON switch): -1; higher = weaker reporter binding. In outline:
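Designed RNA switches with common flanks were transcribed on Illumina chips by stalled E. coli RNA polymerase and titrated with SNAP-549-labelled MS2 coat protein, from 0.7 or 1.5 nM doubling to 3 µM, in Tris-HCl pH 7.5 buffer with KCl, MgCl2, BSA, DTT, tRNA and Tween-20. Steps lasted 0.8–1.5 h (lowest) to 10–20 min (highest). Titrations ran without input, with 200 uM small-molecule ligand, or with an oligonucleotide input. Normalised cluster fluorescence was curve-fitted, and apparent KD is the per-design median over clusters.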

The mark [1] stands for this setting: Eterna round: R95, input ligand: microRNA oligo, concentration not stated.
The mark [2] stands for this setting: Eterna round: R95, input ligand: FMN 200 uM.
The mark [3] stands for this setting: Eterna round: R95, input ligand: none.

“GGUGUGCUAGGAUAUGCUUUGGGCUCGCUUACCUUCGUUUUACUUGAGGAUCACCCAAGUAGAAGGUGCUUGCC [salish99_ex2_r4_039] (Eterna round: R97, puzzle: Exclusion 2)”: the “apparent KD of MS2 coat protein” value (input ligand: FMN 200 uM) was determined as 13.1 nM and the “apparent KD of MS2 coat protein” value (input ligand: none) is 12.4 nM.
As for “GGUUACAAGCUAAGAUCCUACAUGAGGAUCACCCAUGUGGUCCGGUGACGUGAGUCACCGGACUUAGCUCGUCUUGU [salish99_S_TOV1_R5_002] (Eterna round: R97, puzzle: Sensor, turn-off variant 1)”, the “apparent KD of MS2 coat protein” value is, setting by setting: (input ligand: FMN 200 uM) 75.4 nM; (input ligand: none) 80 nM.
Regarding “GGUUCACGAGGAUAUCGAUUUUAGUACAUGAGGAUCACCCAUGUUGUCCAGGUUUCGAUUCGAGAAGGCGUGAACC [LRO-Ex5-04] (puzzle: Exclusion 5)”, the “apparent KD of MS2 coat protein” value under setting [1] stood at 20.8 nM.
In the case of “GGUUGACAUGAGGAUCACCCAUGUGAGGAUAUGCGAGAGAAAAAAGUGAGGAAGAAGAGCAGAAGGCGCUGUCG [salish99-ex1_r3_012] (puzzle: Exclusion 1)”, the “apparent KD of MS2 coat protein” value is, setting by setting: under setting [2], 99.4 nM; under setting [1], 134 nM; under setting [3], 117 nM.
On the same counts, the results for “GGUUGGCGAGGAUAUACAUGAGGAUCACCCAUGUGAAAAUAAAGUGAGGAAAAGAAAAGUAGAAGGCGCUGACG [Mat - Exclusion 3 - Mod of Salish D55] (puzzle: Exclusion 3)” are 158 nM, 72.7 nM and 118 nM.
In the case of “GGUUGGCGAGGAUAUACAUGAGGAUCACCCAUGUGAGAGAAAAAAGUGAGGAAGAAAAGUAGAAGGCGCUGACA [salish99_ex3_r3_046] (puzzle: Exclusion 3)”, the “apparent KD of MS2 coat protein” value is, setting by setting: under setting [2], 188 nM; under setting [1], 43.9 nM; under setting [3], 54.1 nM.
For “GGUUGGCGAGGAUAUACAUGAGGAUCACCCAUGUGAGAGAAAUAAGUGAGGAAGAAAAGUAGAAGGCGCUGACG [salish99_ex3_r3_014] (puzzle: Exclusion 3)”, the “apparent KD of MS2 coat protein” value reads like this: under setting [2], 222 nM; under setting [1], 59.4 nM; under setting [3], 79.2 nM.
On the same counts, the results for “GGUUGGCGAGGAUAUACAUGAGGAUCACCCAUGUGAGAGUAAAAAGUGAGGAAGAAAAGUAGAAGGCGCUGACG [salish99_ex3_r3_011] (puzzle: Exclusion 3)” are 68.6 nM, 36.3 nM and 44 nM.
On the same counts, the results for “GGUUGGCGAGGAUAUACAUGAGGAUCACCCAUGUGAUAGAAAAAAGUGAGGAAGAAAAGUAGAAGGCGCUGACG [salish99_ex3_r3_009] (puzzle: Exclusion 3)” are 723 nM, 50.1 nM and 187 nM.
Turning to “GGUUGGCGAGGAUAUACAUGAGGAUCACCCAUGUGAUCCUAAGGCUGAUCAAGCCUAUGUAGAAGGCGCAAAUC [salish99_ex3_r4_009] (Eterna round: R97, puzzle: Exclusion 3)”, the “apparent KD of MS2 coat protein” value worked out at 49.7 nM (input ligand: FMN 200 uM) and 260 nM (input ligand: none).
Taken in the same sequence, the figures for “GGUUGGCGAGGAUAUACAUGAGGAUCACCCAUGUGGUCCUAAGGCUGAUCAAGCCUAUGUAGAAGGCGCAAAUC [salish99_ex3_r4_010] (Eterna round: R97, puzzle: Exclusion 3)” were 37.7 nM and 223 nM.
For the sequence “GGUUGGCGAGGAUAUACAUGAGGAUCACCCAUGUGGUCCUGUGGCUGGUCUAAACUUUGUAGAAGGCGCGGGUC [salish99_ex3_r4_022] (Eterna round: R97, puzzle: Exclusion 3)”, the “apparent KD of MS2 coat protein” value (input ligand: FMN 200 uM) is 84.9 nM and the “apparent KD of MS2 coat protein” value (input ligand: none) was determined as 78.1 nM.
For “GUAAACGAAGAGGAUAUAUGAUAUCAAAGCUUCAUAGAAGGCUUCACAUGAGGAUCACCCAUGUGAUCUUCAAG [Mat - Exclusion 6 - JL Mod - D25] (Eterna round: R97, puzzle: Exclusion 6)”, the “apparent KD of MS2 coat protein” value reads like this: (input ligand: FMN 200 uM) 354 nM; (input ligand: none) 71.5 nM.
